Laboratory results published in patent US20040053822A1.
Values belong to the binder of their own block, whether it stands above or below them.

Assays:
[1] = biological target: HLA-A*0301 (human); test: competition with 125I probe peptide, purified HLA; details: remark: other sources report otherwise
[2] = biological target: HLA-A*2401 (human); test: inhibition of 125I-labelled standard peptide binding to purified HLA
[3] = biological target: HLA-A2401 (human); test: inhibition of 125I probe peptide binding to purified HLA
[4] = biological target: HLA-A*0201 (human); test: inhibition of 125I-probe binding to purified HLA-A*0201; details: remark: other sources report otherwise
[5] = biological target: HLA-A*3101 (human); test: competition with 125I probe peptide, purified HLA; details: remark: other sources report otherwise
[6] = biological target: HLA-A*3301 (human); test: competition with 125I probe peptide, purified HLA; details: remark: other sources report otherwise
[7] = biological target: HLA-A*0201 (human); test: competition vs 125I probe peptide, purified HLA; details: remark: other sources report otherwise
[8] = biological target: HLA-A*1101 (human); test: competition with 125I probe peptide, purified HLA; details: remark: other sources report otherwise
[9] = biological target: HLA-A*6801 (human); test: competition with 125I probe peptide, purified HLA; details: remark: other sources report otherwise
[10] = biological target: HLA-B*5101 (human); test: competition vs 125I probe peptide, purified HLA; details: remark: other sources report otherwise
[11] = biological target: HLA-B*0702 (human); test: competition vs 125I probe peptide, purified HLA; details: remark: other sources report otherwise
[12] = biological target: HLA-A*0201 (human); test: competition with 125I probe peptide, purified HLA; details: remark: other sources report otherwise

Binder: SYDGLLGDNQI [MAGE3 185-195 (position 185, 11 amino acids)]
- relative binding ratio (IC50 standard peptide / IC50 test peptide) [2]: 0.0026

Binder: IFSKASSSL [MAGE3 peptide, position 150, 9 amino acids]
- relative binding ratio (IC50 standard/IC50 peptide) [3]: 0.016

Binder: KMVELVHFL [MAGE2.112 (9-mer)]
- IC50 [4]: < 500 nM

Binder: YVFPVIFSR [MAGE3.138.V2R …]
- IC50 [5]: 6 nM

Binder: IWEELSVL [MAGE3 221-228 (position 221, 8 amino acids)]
- relative binding ratio (IC50 standard peptide / IC50 test peptide) [2]: -0.0004

Binder: SMLEVFEGR [MAGE2.226 9-mer …]
- IC50 [6]: 9 nM

Binder: SYDGLLGDNQI [MAGE3 peptide, position 185, 11 amino acids]
- relative binding ratio (IC50 standard/IC50 peptide) [3]: 0.0026

Binder: LVHFLLLK [MAGE2/3.116 8-mer LVHFLLLK]
- IC50 [8]: 40 nM
- IC50 [9]: 400 nM

Binder: IFSKASSSL [MAGE3 150-158 (position 150, 9 amino acids)]
- relative binding ratio (IC50 standard peptide / IC50 test peptide) [2]: 0.016

Binder: IFATCLGL [MAGE3 177-184 (position 177, 8 amino acids)]
- relative binding ratio (IC50 standard peptide / IC50 test peptide) [2]: 0.012

Binder: VPISHLYILI [MAGE2.170.110 …]
- IC50 [10]: 50 nM

Binder: NWQYFFPVIF [MAGE3 peptide, position 142, 10 amino acids]
- relative binding ratio (IC50 standard/IC50 peptide) [3]: 0.017

Binder: HFVQENYL [MAGE3 249-256 (position 249, 8 amino acids)]
- relative binding ratio (IC50 standard peptide / IC50 test peptide) [2]: -0.0004

Binder: VFEGREDSIL [MAGE3 230-239 (position 230, 10 amino acids)]
- relative binding ratio (IC50 standard peptide / IC50 test peptide) [2]: -0.0005

Binder: YPLWSQSI [MAGE3.77.I8 YPLWSQSI]
- IC50 [11]: 60 nM

Binder: LVHFLLLKY [MAGE2/3.116 9-mer …]
- IC50 [9]: 8000 nM

Binder: VPISMLYIL [MAGE2.170.M5 …]
- IC50 [10]: 70 nM

Binder: EMLGSVVGNW [MAGE3 134-143 (position 134, 10 amino acids)]
- relative binding ratio (IC50 standard peptide / IC50 test peptide) [2]: 0.0017

Binder: ALIETSYVK [MAGE2.277 9-mer …]
- IC50 [5]: 900 nM

Binder: VFEGREDSI [MAGE3 230-238 (position 230, 9 amino acids)]
- relative binding ratio (IC50 standard peptide / IC50 test peptide) [2]: -0.0004

Binder: QYFFPVIF [MAGE3 144-151 (position 144, 8 amino acids)]
- relative binding ratio (IC50 standard peptide / IC50 test peptide) [2]: 0.12

Binder: NYPLWSQSY [MAGE3 76-84 (position 76, 9 amino acids)]
- relative binding ratio (IC50 standard peptide / IC50 test peptide) [2]: 0.027

Binder: KMVELVHFL [MAGE2.112 …]
- IC50 [7]: 9.8 nM

Other lines, results leading:

- IC50 [1]: 5000 nM
Binder: YFFPVIFSK [MAGE3.138 9-mer …]

- IC50 [1]: 20 nM
Binder: SVFSTTINK [MAGE2.69.V2K9 …]

- relative binding ratio (IC50 standard/IC50 peptide) [3]: 0.014
Binder: LYIFATCL [MAGE3 peptide, position 175, 8 amino acids]

- relative binding ratio (IC50 standard peptide / IC50 test peptide) [2]: 0.048
Binder: LYIFATCLGL [MAGE3 175-184 (position 175, 10 amino acids)]

- IC50 [4]: < 500 nM
Binder: YLQLVFGIEV [MAGE2.157 (10-mer)]

- relative binding ratio (IC50 standard/IC50 peptide) [3]: 0.048
Binder: LYIFATCLGL [MAGE3 peptide, position 175, 10 amino acids]

- relative binding ratio (IC50 standard peptide / IC50 test peptide) [2]: 0.014
Binder: LYIFATCL [MAGE3 175-182 (position 175, 8 amino acids)]

- IC50 [5]: 9000 nM
Binder: TVINYTLWK [MAGE2.73.V2K9 …]

- IC50 [7]: 50 nM
Binder: YLQLVFGIEV [MAGE2.157 …]

- relative binding ratio (IC50 standard/IC50 peptide) [3]: 0.0017
Binder: EMLGSVVGNW [MAGE3 peptide, position 134, 10 amino acids]

- relative binding ratio (IC50 standard/IC50 peptide) [3]: 0.012
Binder: IFATCLGL [MAGE3 peptide, position 177, 8 amino acids]

- relative binding ratio (IC50 standard/IC50 peptide) [3]: 0.12
Binder: QYFFPVIF [MAGE3 peptide, position 144, 8 amino acids]

- IC50 [1]: 500 nM
Binder: LLGDNQIMPK [MAGE1/3.189 10-mer …]

- relative binding ratio (IC50 standard peptide / IC50 test peptide) [2]: 0.017
Binder: NWQYFFPVIF [MAGE3 142-151 (position 142, 10 amino acids)]

- IC50 [8]: 3 nM
Binder: YVFPVIFSK [MAGE3.138.V2 …]

- IC50 [12]: 50 nM
Binder: YLQLVFGIEV [MAGE2.157 10-mer …]
